Laboratory results as given in patent US20020045741A1.

Target: CHO derived N' FLAG-mNR6 (murine NR6 with an N-terminal FLAG sequence) (mouse) (UniProt Q9JM58)
Assay: BiaCore biosensor, M2 on the sensorchip; concentrated CHO conditioned medium after M2 affinity column

UniProt Q9JM58, sequence (Q9JM58 other isoform, or with tags, fused parts or gaps limits assumed): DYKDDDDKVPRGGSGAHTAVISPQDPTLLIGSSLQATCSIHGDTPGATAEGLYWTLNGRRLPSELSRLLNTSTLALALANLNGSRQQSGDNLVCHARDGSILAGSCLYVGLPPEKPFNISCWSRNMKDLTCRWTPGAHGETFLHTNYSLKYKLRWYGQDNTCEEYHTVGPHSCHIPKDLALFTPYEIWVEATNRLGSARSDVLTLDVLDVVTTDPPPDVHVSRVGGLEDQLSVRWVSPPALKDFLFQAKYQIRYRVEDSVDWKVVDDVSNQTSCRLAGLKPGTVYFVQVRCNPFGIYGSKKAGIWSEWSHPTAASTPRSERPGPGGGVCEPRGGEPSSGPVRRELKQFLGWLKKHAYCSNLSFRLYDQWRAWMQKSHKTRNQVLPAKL

How did the M2 binding remaining in the unbound fraction after M2 affinity resin turn out when “anti FLAG peptide M2 antibody (Kodak Eastman, USA)” was run?
Its M2 binding remaining in the unbound fraction after M2 affinity resin is 20%.
